Laboratory results reported in patent WO2022194311A2.

Legend:
Test in all cases: SPR (Biacore 8K), His-tagged FcRn captured by anti-His antibody on CM5 chip, pH 6.0
rat FcRn (rat) = rat FcRn (rat) (UniProt P13599)
human FcRn (human) = human FcRn (human) (UniProt P55899)
[1] = molecular target: cynomolgus monkey FcRn (cynomolgus monkey) (UniProt Q8SPV9)

Measured: Kd

human FcRn (human), sequence (P55899 24-297 limits assumed, form in doubt): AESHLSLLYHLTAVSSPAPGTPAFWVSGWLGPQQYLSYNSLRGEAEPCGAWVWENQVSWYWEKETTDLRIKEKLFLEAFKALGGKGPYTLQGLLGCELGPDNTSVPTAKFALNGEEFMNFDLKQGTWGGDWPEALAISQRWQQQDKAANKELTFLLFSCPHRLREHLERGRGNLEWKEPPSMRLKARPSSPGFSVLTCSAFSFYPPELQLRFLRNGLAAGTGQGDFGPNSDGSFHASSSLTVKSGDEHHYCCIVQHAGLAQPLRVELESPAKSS
rat FcRn (rat), sequence (P13599 23-298 limits assumed, form in doubt): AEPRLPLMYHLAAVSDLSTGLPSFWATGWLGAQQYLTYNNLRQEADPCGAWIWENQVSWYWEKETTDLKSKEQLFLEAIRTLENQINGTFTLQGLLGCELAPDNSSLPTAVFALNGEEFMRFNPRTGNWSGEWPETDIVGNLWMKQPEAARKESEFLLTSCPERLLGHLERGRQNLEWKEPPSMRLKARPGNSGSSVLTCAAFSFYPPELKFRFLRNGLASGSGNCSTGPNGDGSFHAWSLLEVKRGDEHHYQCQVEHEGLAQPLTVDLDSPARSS
cynomolgus monkey FcRn (cynomolgus monkey), sequence (Q8SPV9 24-297 limits assumed, form in doubt): as the sequence (P55899 24-297 limits assumed, form in doubt) above, with N39D, E44Q, G99S, S189G, S190N, L217M, S269T counted along it

secukinumab (Cosentyx) (antibody)
10 nM: rat FcRn (rat) | human FcRn (human) | [1]
